Measurements from PMC4126800 (Nature, 2014).

Biological target: the molecule itself
Experiment: SAXS

B1: Human CD81 large extracellular loop (CD81 LEL, residues 112-202) (domain or fragment)
chain: GFVNKDQIAKDVKQFYDQALQQAVVDDDANNAKAVVKTFHETLDCCGSSTLTALTTSVLKNNLCPSGSNIISNLFKEDCHQKIDDLFSGKL
stoichiometry N: 2
